Assay: yeast display, Sf9 membrane polyspecificity reagent, FACS + sequencing; frameworks hold sequencing errors
Outline: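 Nanobodies came from a synthetic yeast display library in Saccharomyces cerevisiae BJ5465, induced with galactose for 36–48 hours and stained for 1 hour at 4 °C with 10% biotinylated, detergent-solubilized Sf9 membrane reagent. Cells were enriched on streptavidin microbeads and then FACS-sorted, with low and high (top ~1%) gates set on anti-HA fluorescence for expression and streptavidin fluorescence for reagent binding. Each polyreactivity label reflects the gate a clone came from. Genes were amplified by colony PCR, sequenced by MiSeq 2 × 250 and filtered by CDR length.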

Sequence	polyreactivity (PSR sort gate)
QVQLVESGGGLVQAGGSLRLSSAASGRIFNIYAMGWYRQAPGKERELVARITSGGRTNYADSVKGRFTISRDNAKNTVYLQRNSLKPEDTAVYYCAARTYGQRGDYWGQGTQVTVSS	high polyreactivity
QVQLGESGGRLVQAGGSIRLTCAASGRTFVTYAMAWSRQAPGNEWELVAGIRPGGSTYYADSVKGRFTISRDNAKNTVYLQMNSLKPEDTAVYYCAASRTSWQGYNYWGQGTQVTVSS	high polyreactivity
QVQLVESGGGIVQAGGSLRLSCAASGRIFAYYAMGWYRQAPGKERELVAAISSSGGGTYYAYSVKGRFTISRDNAKNTVYLQMTSLKPEDTSVYYCAKRVPRKSSVSHPYDYWGQGTQVTVSS	high polyreactivity
QVQLVESGGGLVQAGGSLRLSCAASGSTFGDNAMGWYRQAPGKERELVAVITSDTSTYYADSVKGRFTISRDNAKNTVYLQMNSLKPEDTAVYYCAADWGGLWFWYEYWGQGTQVTVSS	low polyreactivity
QVQLVESGGGLVQAGGSLRLSCAASGLTFYRYAMGWYRQSPGKERELVAAISRGGTSTYYADSVKGRFTISRDNAKNTVYLQMSSLKPEDTAVYYCARLVKPYNYGRYGYWGQGTQVTVSS	high polyreactivity
QVQLVESGGGLVLAGGRLRLSCAASGFTLDYYTMGWYRLAPGKEREFVAAITRRTGNTYYADSVKGRFTISRDNEKITVYLQMNSLKPEDPAVYYCAATFWPWYSGITYYYWGQGTQVTVSS	high polyreactivity
QVQLVESGGGLVQAGGSLRLSCAASGRIFDYNAMGWYRQAPGKERELVAAINSGGSTYADSVKGRFTISRDNAKNTVYLQMNSLNPEDTAVYYCAKSLGQTDWEYDSWGQGTQVTVSS	low polyreactivity
QVQLVESGGGLVQAGGSLRLSCAASGSTFGHYARGWYRQATGKERELVAAISFTGARTYYADSVKGRFTISRDNAKNTVYLQMNSLKPEDTAVYYCIARGDYRISDYWGQGTQVTVSS	high polyreactivity
QVQLVESGGGLVQAGGSLRLSCAASGITFTFYAMGWYRQAPGKERELVAAISRRGGSTYYADSVKGRFTISRDNAKNTVYLQMNSLKPEDTAVYYCAARGYRPMDYWGQGTQVTVSS	high polyreactivity
QVQLVESGGGLVQAGGSLRLSCAASGSTFNTYAMGWYRQAPGKERELVAAITWRGGRTYYADSVKGRFTISRDNAKNTVYLQMNSLKPEDTAVYYCNTLRPRLDGVYGYDYWGQGTQVTVSS	high polyreactivity
QVQLVESGGGLVQAGGSLRLSCAASGNTFYGYAMGWYRQAPGKERELVAAITKTGGSTYYADSVKGRFTISRDNAKNTVYLQMNSLKPEDTAVYYCNAARETRPRDYYWGQGTQVTVSS	low polyreactivity
QVQLVESGGGLVQAGGSLRLSCAASGSICGPYALGWYRQAPGKERELVAAITWTGGRTYYADSVKGRFTISRDNAKNTVYFQMNSLKPEDTAVYYCAADYSPSTWYLYYTLYYYWGQGTQVTVSS	low polyreactivity
QVQLVESGGGLVQAGGSLRLSCAASGITFVRNTMGWYRQAPGKERELVAAIDSGGNTNADSVKGRFTISRDNAKNTVYLQMNSLTPEDTAVYYCAVDGGEFSSYGYWGQGTQVTVSW	low polyreactivity
QVQIVESGGGLVQAGGSLRISCAASGRTFRWYAMGWYRQAPGKERELVASITWSGGSTYYADSVKGRFTISRDNAKNSVYLQMNSLKPEDTAVYYCAAEKRYTYVGGPFNYWGQGIQVTVSS	high polyreactivity
QVQLVESGGGLVQAGGSLRLSCAASGRIFDYYAMGWYRQAPGKERELVAGITSDGDITYYADSVKGRFTISRDNAKNTVYLQMNSLKPEDTAVYYCAADSPHPVRYDYWGQGTQVTVSS	low polyreactivity
QVQLVESGGGLVQAGGSLRLSCAASGNIFYANAMGWYRQAPGKERELVAGITVRGGRTYYADSVKGRFTISRDNAKNTVYLQMNSLKPEDNAVYYCAVRSRGSRYDYWGQGTQVNVSS	high polyreactivity
QVQLVESGGGLVQAGGSLRLSCAASGGTFSLNAMGWSRQAPGKERELVAAITYSTGRTHYADSVKGRFTISRDNAKNTVYLQMNSLKPEDTAVYYCAARVYGTKMDYWGQGTQVTVSS	high polyreactivity
